Here are results for one substance from PMC6404601.

Values joined by “and” are separate entries in the source; they are usually repeats but may differ in a detail not shown here. Equal entries are not always repeated.

The target in the assay is YFP^C-Rho5 or YFP^C-Rho5^G12V. Nature of the assay: split reporter (BiFC, NanoBiT); BiFC of candidate VN fusions with YFP^C fusions of WT or mutant Rho5 (G12V, K16N) in living yeast cells; z-stack fluorescence microscopy at 22-25°; for Atg21-VN signals quantified above a threshold set from a strain with untagged Rho5.

On to “Atg21-VN (Atg21 tagged with VN, the N-terminal fragment of Venus) (from UniProt Q02887 1-496) (natural protein)”, for which the percent of cells with YFP signal above threshold is 40 % of cells and 62 % of cells.
